Results as given in patent US8846873B2, “Antibodies directed to GPNMB and uses thereof” (Celldex Therapeutics, Inc., priority 2004, dated 2014).
“Also recorded” adds a separate entry of the source. Where a name gives a salt, the structure may show the parent alone. Where a SMILES comes first, the peptide text is derived from it. [ ]: non-standard residue; d: D form. The star is where a group is joined. Dolaproine = CO[C@@H]([C@@H]1CCCN1)[C@@H](C)C(=O)O; Dil = CC[C@H](C)[C@H](NC)[C@@H](CC(=O)O)OC; X1 = C[C@@H](N*)[C@@H](O)c1ccccc1; NMeV = CN[C@H](C(=O)O)C(C)C

How the values were obtained:
[1] = molecular target: T1, GPNMB (Homo sapiens, UniProt Q14956); test: Binning of antibodies (Luminex competitive binding)
T1 construct: made in house; host or cells: HEK 293
T1 sequence (Q14956 23-492): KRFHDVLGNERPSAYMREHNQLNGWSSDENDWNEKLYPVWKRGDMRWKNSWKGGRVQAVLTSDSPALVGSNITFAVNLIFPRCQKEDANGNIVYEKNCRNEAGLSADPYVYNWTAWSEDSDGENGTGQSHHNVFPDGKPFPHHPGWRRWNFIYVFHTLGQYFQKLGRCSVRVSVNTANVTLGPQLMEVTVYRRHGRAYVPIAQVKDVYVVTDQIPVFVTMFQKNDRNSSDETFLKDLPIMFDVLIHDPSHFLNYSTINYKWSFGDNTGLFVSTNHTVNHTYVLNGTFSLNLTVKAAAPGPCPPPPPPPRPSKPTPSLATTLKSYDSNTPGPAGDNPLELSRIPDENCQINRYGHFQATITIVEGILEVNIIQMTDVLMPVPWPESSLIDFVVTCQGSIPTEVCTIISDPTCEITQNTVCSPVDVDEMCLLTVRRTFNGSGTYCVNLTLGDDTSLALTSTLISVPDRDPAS
Description: Certain antibodies, described herein were binned in accordance with the protocol described in U.S. Patent Application Publication No. 20030157730. MxhIgG conjugated beads are prepared for coupling to primary antibody. The volume of supernatant needed is calculated using the following formula: (n+10)×50 μL (where n=total number of samples on plate). Where the concentration is known, 0.5 μg/mL is used. Bead stock is gently vortexed, then diluted in supernatant to a concentration of 2500 of each bead per well or 0.5×10^5/mL and incubated on a shaker in the dark at RT overnight, or 2 hours if at a known concentration of […]. Following aspiration, 50 μL of each bead is added to each well of filter plate, then washed once by adding 100 μL/well wash buffer and aspirating. Antigen and controls are added to filter plate 50 μL/well then covered and allowed to incubate in the dark for 1 hour on shaker. Following a wash step, a secondary unknown antibody is added at 50 μL/well using the same dilution (or concentration if known) as is used for the primary antibody. The plates are then incubated in the dark for 2 hours at RT on shaker followed by a wash step. Next, 50 μL/well biotinylated mxhIgG diluted 1:500 is added and allowed to incubate in the dark for 1 hour on shaker at RT. Following a wash step, 50 μL/well Streptavidin-PE is added at 1:1000 and allowed to incubate in the dark for 15 minutes on shaker at RT.

[2] = system: SK-MEL-2 melanoma xenografts; test: Human SK-MEL-2 melanoma xenograft in athymic mice; assay type: in vivo
Description: (§1) Test Animals: Five- to 6-week old athymic mice (CD-1 nu/nu females), used for human tumor xenografts, were obtained from Harlan Laboratories (Indianapolis, Ind.). Animals were housed in specific pathogen-free conditions, according to the guidelines of the Association for Assessment and Accreditation of Laboratory Animal Care International (AAALAC International). Test animals were provided pelleted food and water ad libitum and kept in a room with conditioned ventilation (HVAC), temperature (22°±2° C.), relative humidity (55%±15%), and photoperiod (12 hr). All studies were carried out with approved institutional animal care and use protocols.
(§2) Human Melanoma Xenograft Models. The tumor inhibitory activity of the CR011-MMAE immunoconjugate was measured in an anti-tumor xenograft model using athymic mice, according to published methods (see Geran et al., Cancer Chemother. Rep. 3:1-104 (1972)). […] When tumors became established (10-20 days), the animals were pair-matched into groups (n=6 mice/group), and treatment was administered by intravenous injection (tail vein).
(§3) The SK-MEL-2 human melanoma (ATCC #HTB-68) was derived from a metastatic site (skin of thigh) of a person with malignant melanoma, and the SK-MEL-5 human melanoma (ATCC #HTB-70) was derived from a metastatic site (axillary lymph node) of a person with malignant melanoma (see Fogh et al., J. Natl. Cancer Inst. 59: 221-226 (1977)). Both cell lines were obtained from the American Type Culture Collection.
(§4) The effects of treatment were monitored by repetitive tumor measurements across 2 diameters with Vernier calipers; tumor size (in mg) was calculated using a standard formula, (W^2×L)/2, assuming a specific gravity of 1.0. Tumor size and body weights were assessed twice weekly. Mice were examined daily, however, and moribund animals were humanely euthanized if clinical indications of excessive pain or distress were noted (i.e., prostration, hunched posture, paralysis/paresis, distended abdomen, ulcerations, abscesses, seizures, and/or hemorrhages). Animals with tumors exceeding 2,000 mg were removed from the study and euthanized humanely.
No apparent or statistically significant anti-tumor effects were observed. […] In preliminary studies, tumor regression was complete and was not followed by regrowth of the tumor despite lengthy observation periods (up to 200 days).

[3] = system: SK-MEL-5 melanoma xenografts; test: Human SK-MEL-5 melanoma xenograft in athymic mice; assay type: in vivo
Description: as §1, §2, §3, §4
Soon after the commencement of treatment with paclitaxel, however, significant tumor growth inhibition was observed (P≦0.039) at day 3 after treatment began, and this anti-tumor effect continued, producing 100% growth inhibition (stasis). The responses of SK-MEL-5-bearing test animals to vinblastine and paclitaxel were short-lived. After cessation of treatment at the maximally tolerated doses, tumors resumed rapid, progressive growth.

[4] = system: SK-Mel-2 cells; test: Flow cytometry of CR011 binding to cell surface CG56972/GPNMB; parameters: species or system human; details: SK-MEL-2
Description: (§5) Flow Cytometry: Quantitative analysis of GPNMB expression on the cell surface of cell lines was determined by flow cytometry. […] Cells were fixed in 1% paraformaldehyde/PBS and examined on a Becton Dickinson FACSCalibur flow cytometer. Data analysis was performed with Becton Dickinson Cell Quest software version 3.3 and the geometric mean fluorescence intensity ratio (GMR) was determined for each cell type.
as §5, with “CG56972” for “GPNMB”, “the” for “the cell”, “cytometry (FACS).” for “cytometry.”

[5] = system: SK-Mel-2 cells; test: ADCC assay with human PBMC (DELFIA EuTDA cytotoxicity); assay type: cell-based; details: human PBMC 30 to 100 fold; 2, 5, 10 μg/200 μl
Description: We next examined whether the CR0111gG1 mAb could induce ADCC in SK-MEL-2 cells in culture in the presence of human PBMC. Human PBMC were isolated from whole blood using a Ficoll-Plaque. Briefly, in a 50 mL tube, 15 mL of PBS was added to 20 mL of whole blood which was underlayed with 10 mL Ficoll-Plaque and the tube was centrifuged at 2000 RPM. Mononuclear cells were collected from the interface and washed 3 times with PBS. The ADCC assay was carried out in a 96 well plate using a fluorescence assay for cytolysis from Perkin-Elmer (DELFIA EuTDA Cytotoxic assay). The procedure is based on loading target cells with a fluorescence enhancing ligand (BATDA, bis (acetoxymethyl) terpyridine—dicarboxylate). The hydrophic ligand penetrates the membrane quickly. Within the cell the esterbonds are hydrolyzed to form a hydrophilic ligand (TDA, terpyridine—dicarboxylic acid) which can no longer pass through the membrane. After cytolysis the ligand is released and introduced to the Europium solution. The europium and the ligand form a highly fluorescent and stable chelate (EuTDA). Fluorescence intensity are recorded using excitation and emission wavelengths as λex=340 nm and λem=613 nm, respectively.

[6] = system: UACC-62; test: Anti GPNMB antibody mediated indirect cell killing (saporin secondary antibody-toxin conjugate, colony count); assay type: cell-based, human; details: 5-FU at 600 uM, positive reagent control
Description: UACC-62, a GPNMB antigen expressing cell line, and TK10, a non-expressing cell line were plated onto flat bottom 96-well tissue culture plates (Becton Dickinson, Franklin Lakes, N.J., USA) at a density of 3000 cells per well. Once the cells reached ˜25% confluency, 100 ng/well of secondary antibody-toxin conjugate (goat anti-human IgG-saporin; Advanced Targeting Systems, San Diego, USA, HUM-ZAP; cat. # IT-22) was added. Anti-GPNMB MAbs 2.10.2, 2.22.1, 1.15.1 or isotype control mAb (pK16.3) were added to each well at a final concentration of 10 or 50 ng/mL. An anti-EGFR monoclonal antibody (MS-269-PABX, NeoMarkers, Fremont, Calif., USA) was used as a positive primary antibody control. Chemotherapy reagent 5-FU at 600 uM was used as a positive reagent control. On day 5, the cells were trypsinized, transferred to 6-well tissue culture plates and incubated at 37° C. Plates were examined daily and between 8-10 days, all plates were Giemsa stained and colonies were counted.

1.15: anti-GPNMB antibody 1.15 of the binning tables; line of the lead mAb 1.15 / CR011
bin ([1]; bin assignment of Table 8): VIII | bin ([1]; bin assignment of Table 9, Cut-off = 90): VIII | binning signal (Table 8) ([1]; paired with 1.1): 91 | binning signal (Table 8) ([1]; paired with 1.11): 10 | binning signal (Table 9) ([1]; paired with 1.11): 19 | binning signal (Table 8) ([1]; paired with 1.12): 15 | binning signal (Table 9) ([1]; paired with 1.12): 21 | binning signal (Table 8) ([1]; paired with 1.13): 13 | binning signal (Table 9) ([1]; paired with 1.13): 5 | binning signal (Table 8) ([1]; paired with 1.15): 0 | binning signal (Table 9) ([1]; paired with 1.15): 0 | binning signal (Table 8) ([1]; paired with 1.2): 79 | binning signal (Table 9) ([1]; paired with 1.2): 90 | binning signal (Table 8) ([1]; paired with 1.3): 71 | binning signal (Table 9) ([1]; paired with 1.3): 51 | binning signal (Table 8) ([1]; paired with 1.5): 15 | binning signal (Table 9) ([1]; paired with 1.5): −9 | binning signal (Table 8) ([1]; paired with 1.7): 21 | binning signal (Table 9) ([1]; paired with 1.7): 17 | binning signal (Table 8) ([1]; paired with 1.8): 8 | binning signal (Table 9) ([1]; paired with 1.8): 12 | binning signal (Table 8) ([1]; paired with 1.9): 12 | binning signal (Table 9) ([1]; paired with 1.9): 19 | binning signal (Table 8) ([1]; paired with BB): −19 | binning signal (Table 9) ([1]; paired with BB): 59 | binning signal (Table 8) ([1]; paired with xV5): 89

CC[C@]1(O)C[C@@H]2CN(CCc3c([nH]c4ccccc34)[C@@](C(=O)OC)(c3cc4c(cc3OC)N(C)[C@H]3[C@@](O)(C(=O)OC)[C@H](OC(C)=O)[C@]5(CC)C=CCN6CC[C@]43[C@@H]65)C2)C1 [vinblastine, vinblastine sulfate, reference compound]
anti-tumor effect ([2]; Study N-386, i.v., CR011-vcMMAE 20, 10, 5 or 2.5 mg/kg q4d x4, vinblastine […] q4d x4): very slight, but not significant, anti-tumor effect | anti-tumor effect ([3]; CR011-ONC-3, i.v., vs saline and PBS control groups): noticeable, but not significant tumor growth inhibition

CR011 IgG1: CR011 mAb 1.15.1 switched to IgG1 constant region; heavy chain SEQ ID NO: 395
FACS shifts compared to isotype control mAbs [4]: comparable FACS shifts | ADCC / cytolysis of SK-MEL-2 cells [5]: mediated ADCC; also recorded: caused cytolysis of SK-MEL-2 cells in a dose dependent manner

O=c1[nH]cc(F)c(=O)[nH]1 [Mab 5-FU, 5-FU]
killing of cells [6]: complete killing

CC[C@H](C)[C@@H]([C@@H](CC(=O)N1CCC[C@H]1[C@H](OC)[C@@H](C)C(=O)N[C@H](C)[C@@H](O)c1ccccc1)OC)N(C)C(=O)[C@@H](NC(=O)[C@@H](NC)C(C)C)C(C)C [free monomethylauristatin E, monomethylauristatin E, reference compound] (H-[NMeV]V[Dil][Dolaproine]-X1)
tumor response ([2]; CR011-ONC-1, CR011-vcMMAE 5 mg/kg/treatment i.v. q4d x4, components at doses identical to those in the immunoconjugate): lack of responses; also recorded: lack of tumor growth inhibition

CC(=O)O[C@H]1C(=O)[C@@]2(C)[C@H]([C@H](OC(=O)c3ccccc3)[C@]3(O)C[C@H](OC(=O)[C@H](O)[C@@H](NC(=O)c4ccccc4)c4ccccc4)C(C)=C1C3(C)C)[C@]1(OC(C)=O)CO[C@@H]1C[C@@H]2O [paclitaxel, reference compound]
long-term, tumor-free survivors ([3]; paclitaxel group): One long-term, tumor-free survivor
